Experimental data from US20240247047A1.

Molecular target: human BTLA (wild-type) on cells (human) (UniProt Q7Z6A9)
Assay: cell-based or functional assay

Chain of human BTLA (wild-type) on cells (human) (Q7Z6A9 31-289): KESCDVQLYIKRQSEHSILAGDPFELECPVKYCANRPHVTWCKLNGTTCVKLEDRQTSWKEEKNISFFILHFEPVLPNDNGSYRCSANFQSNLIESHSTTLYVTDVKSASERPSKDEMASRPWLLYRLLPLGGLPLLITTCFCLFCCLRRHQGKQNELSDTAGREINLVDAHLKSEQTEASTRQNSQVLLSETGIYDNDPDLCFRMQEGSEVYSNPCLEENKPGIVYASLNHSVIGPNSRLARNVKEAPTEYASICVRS

Which results are given for human CMV UL144-Fc (Fc fusion)?
ERK1/2 phosphorylation, control JTAg cells activated with co-immobilized anti-CD3 and Fc protein: 50 to 70 % reduction; ZAP70/Syk phosphorylation, JTAg cells with ectopic BTLA: 15 to 25%; phosphorylation of ERK, Akt and cellular phosphotyrosines, BJAB cells activated with co-immobilized anti-IgM and titrated Fc protein: 50 % reduction
